# Patent publication US20150086562A1 (BIOATLA, published 2015)
# Substitutions are numbered along the chain they refer to.
# B1: VM1000 (antibody, V domains shown)
# VH: QVQLVQSGAEVKKPGASVKVSCKASGYVFTSYWLHWIRQSPSRGLEWLGYINPRNDYTEYNRIFKGRLTISKDTSKNQVVLTMTNMDPVDTATYYCARRGITTFYWGQG
# VL: EIVLTQSPATLSLSPGERATLSCKSSQSVLYSAVEKNYLAWYQQKPGKAPKLLIYWASTRERGVPSRFSGSGSGTDFTFTISSLQPEDIATYYCKQYLSSWTFGQG
# notes: Humanized antibody with human constant region; also called anti-CD22 Mab clone VM1000
# B2: VM1002 (antibody, V domains shown)
# VH: EVQLVQSGAEVKKPGESLRISCKGSGYVFTSYWLHWVRQAPGQGLEWMGYINPRNDYTEYNRIFKGRVTITADKSTSTAYMELSSLRSEDTAVYYCARRGITTFYWGQG
# VL: B1 VL with K48Q, K51R, V64I, S66D, F79L, S83R, Q85E, I89F, T91V
# notes: Humanized antibody with human constant region; also called anti-CD22 Mab clone VM1002
# B3: VM1011 (antibody, V domains shown)
# VH: QVQLQESGPGLVKPSQTLSLTCTVSGYVFTSYWLHWIRQPPGKGLEWIGYINPRNDYTEYNRIFKGRVTITADKSTSTAYMELSSLRSEDTAVYYCARRGITTFYWGQG
# VL: B1 VL with K48Q, K51R, V64I, S66D, F79L, S83R, Q85E, I89F, T91V
# notes: Humanized antibody with human constant region; also called anti-CD22 Mab clone VM1011
# B4: VM1004 (antibody, V domains shown)
# VH: EVQLVQSGAEVKKPGATVKISCKVSGYVFTSYWLHWIRQSPSRGLEWLGYINPRNDYTEYNRIFKGRFVFSLDTSVSTAYLQICSLKAEDTAVYYCARRGITTFYWGQG
# VL: B1 VL with V64I, S66D, F79L, S83R, Q85E, I89F, T91V
# notes: Humanized antibody with human constant region; also called anti-CD22 Mab clone VM1004
# B5: VM1003 (antibody, V domains shown)
# VH: B4 VH
# VL: B1 VL with K48Q, K51R, V64I, S66D, F79L, S83R, Q85E, I89F, T91V
# notes: Humanized antibody with human constant region; also called anti-CD22 Mab clone VM1003
# B6: VM1001 (antibody, V domains shown)
# VH: B1 VH
# VL: B1 VL with K48Q, K51R, V64I, S66D, F79L, S83R, Q85E, I89F, T91V
# notes: Humanized antibody with human constant region; also called anti-CD22 Mab clone VM1001
# B7: VM1006 (antibody, V domains shown)
# VH: B4 VH with E1Q, T17S, I20V, V24A
# VL: DIQMTQSPSSLSASVGDRVTITCKSSQSVLYSAVEKNYLAWYQQKPGKAPKLLIYWASTRERGIPDRFSGSGSGTDFTLTISRLEPEDFAVYYCKQYLSSWTFGQG
# notes: Humanized antibody with human constant region; also called anti-CD22 Mab clone VM1006
# B8: VM1007 (antibody, V domains shown)
# VH: B2 VH with E1Q, E16A, L18V, R19K, I20V, G24A, P41R, G44R, M48I
# VL: B7 VL with D1A, M4L, I64V, D66S, L79F, R83S, P86A, F89A, V91T
# notes: Humanized antibody with human constant region; also called anti-CD22 Mab clone VM1007
# Target: T1, CD22 protein expressed on the surface of Daudi cells (human, UniProt P20273 20-847)
# T1 construct: whole, on cells; also called human CD22; cell surface CD22
# T1 sequence (looked up): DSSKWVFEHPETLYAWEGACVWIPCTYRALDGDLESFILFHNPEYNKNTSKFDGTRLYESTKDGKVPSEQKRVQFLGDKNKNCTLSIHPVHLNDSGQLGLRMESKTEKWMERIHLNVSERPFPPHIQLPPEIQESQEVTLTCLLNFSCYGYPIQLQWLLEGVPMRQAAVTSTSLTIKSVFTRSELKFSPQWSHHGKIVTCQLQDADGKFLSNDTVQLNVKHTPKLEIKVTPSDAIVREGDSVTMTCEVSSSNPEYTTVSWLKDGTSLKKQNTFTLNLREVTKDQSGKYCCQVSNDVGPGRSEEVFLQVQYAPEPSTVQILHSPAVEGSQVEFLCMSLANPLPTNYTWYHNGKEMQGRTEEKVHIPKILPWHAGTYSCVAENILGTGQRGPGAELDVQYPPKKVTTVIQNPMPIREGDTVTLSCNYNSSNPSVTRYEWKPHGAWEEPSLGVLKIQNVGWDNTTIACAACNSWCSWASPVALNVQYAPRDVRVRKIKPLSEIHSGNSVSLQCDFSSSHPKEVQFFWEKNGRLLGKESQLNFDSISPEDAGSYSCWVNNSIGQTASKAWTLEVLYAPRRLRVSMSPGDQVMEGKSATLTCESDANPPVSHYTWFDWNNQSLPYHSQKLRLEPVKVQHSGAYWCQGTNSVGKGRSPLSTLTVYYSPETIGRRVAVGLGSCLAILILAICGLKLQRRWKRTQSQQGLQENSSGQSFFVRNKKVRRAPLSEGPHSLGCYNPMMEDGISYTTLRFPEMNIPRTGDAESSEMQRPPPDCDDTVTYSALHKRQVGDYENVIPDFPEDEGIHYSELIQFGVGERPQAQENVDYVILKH
# Test: confocal immunofluorescence, FITC-labelled antibody on Daudi cells
# Method: Selected antiCD22 selected anti-CD22 Mab clones VM1000, VM1001, VM1002, VM1003, VM1004, VM1005, VM1006, VM1007, VM1008, VM1009, VM1010, VM1011, VM1012, VM1013, VM1014, and VM1015 of the invention were directly conjugated to F1TC using the Zenon labeling complex (Molecular Probes) using the manufacturer's recommended procedures. Approximately 1×10e7 Daudi cells were resuspended in PBS containing 5 ug/ml labeled anti-CD22 antibody and incubated for 45 minutes on ice. Cells then washed twice in PBS-FBS solution at 0 C. Cells were then incubated in RPMI 1640 media containing 10% FBS for varying periods at 37 C, harvested and washed in PBS at 0 C. The cells were then briefly fixed in 4% paraformaldehyde solution for 5 min at room temperature, then washed in PBS containing 0.05% Triton X-100. Cell pellets were collected by centrifugation and resupended in a minimal volume of FBS neat, and then applied to glass microscope slides. Prior to analysis, slides were treated with mounting fluid containing the nuclear stain DAPI, then coverslips were applied. Confocal images were recorded using an ACAS Ultima confocal microscope (Meridian Instruments, Inc., Okemos, Mich.) and represent 1-μm sections through the center of a focal plane using a 100× oil immersion objective.
# The Anti-CD22 monoclonal antibodies selected clones VM1000, VM1001, VM1002, VM1003, VM1004, VM1005, VM1006, VM1007, VM1008, VM1009, VM1010, VM1011, VM1012, VM1013, VM1014, and VM1015 of the invention were analysed for their ability to be rapidly internalized into the intracellular compartment as judged by immunoflourescent signal on the cell surface versus the intracellular endo cytotic compartment. The antibodies of the invention were compared to BA006H, and humanized version of the murine monoclonal antibody LL2. In this example, FIG. 21A, the anti-CD22 antibodies of the invention bind to CD22 protein expressed on the surface of Daudi cells by approximately 20-fold compared to BA006H as judged by relative mean fluorescence (RMF), and are virtually completely internalized within the cell with 90 minutes, localizing predominantly to within the perinuclear golgi apparatus and associated lysozomes. Shown in FIG. 21B is a chart of the RMF surface binding values obtained in this manner for individual anti-CD22 antibodies of the invention.
row,fold surface binding by relative mean fluorescence (RMF) compared to BA006H,Binder
1,~20 fold,B1
2,~20 fold,B2
3,~20 fold,B3
4,~20 fold,B4
5,~20 fold,B5
6,~20 fold,B6
7,~20 fold,B7
8,~20 fold,B8

# Target: T1, CD22 protein expressed on the surface …
# Test: cell-based or functional assay
row,"Daudi Internalization by FACS, % Shift",Binder
1,85.9%,B1
2,84.6%,B2
3,87.1%,B3
4,87.1%,B4
5,70.8%,B5
6,86.4%,B6
7,88.3%,B7
8,85%,B8

# Target: T2, recombinant CD22 extracellular domain
# T2 construct: Kept apart from m18, which is cell-surface CD22; also called CD22 (analyte in the BIAcore runs); CD22 ECD
# Test: ELISA on plates coated with recombinant CD22 extracellular domain (coating 2, 0.2, 0.02 or 0.002 ug/ml per paragraph 227; the sheet does not say which), anti-human IgG-HRP, read at 450 nm
# Method: Nunc-Immuno MaxiSorp 96 well plates were coated with 100 μl of 2 μg/ml, 0.2 μg/ml, 0.02 μg/ml or 0.002 μg/ml recombinant CD22 extracellular domain (PeproTech, Inc. catalog number 100-01 in coating solution (sodium bicarbonate in PBS). The plates were covered with plate sealer and incubated at 4° C. overnight. Plates were emptied and the residual liquid tapped out on paper towels. 200 μl washing solution (0.05% Tween-20 in PBS) was added and shaken at 200 RPM for 5 min at room temperature. The plates were emptied and residual liquid tapped out on paper towels. 200 μl blocking solution (2% Carnation milk in PBS) was added and shaken at 200 RPM for one hour at room temperature. Plates were emptied and residual liquid tapped out on paper towels. 100 μl of diluted samples containing VM1000, VM1001, VM1002, VM1003, VM1004, VM1005, VM1006, VM1007, VM1008, VM1009, VM1010, VM1011, VM1012, VM1013, VM1014, and VM1015 antibodies for ELISA were used. The samples were shaken at 200 RPM for one hour at room temperature; plates emptied and residual liquid tapped out on paper towels. 200 μl washing solution (0.05% Tween-20 in PBS) was added, shaken at 200 RPM for 5 min at room temperature; plates emptied and residual liquid tapped out on paper towels. This process was repeated three times. 100 μl of 1:2500 dilution of anti-human IgG conjugated with HRP diluted in block solution (2% Carnation milk in PBS) was added for all samples. 100 μl of 1:2500 dilution of anti-rabbit IgG conjugated with HRP diluted in block solution (2% Carnation milk in PBS) was added for control antibody. The contents were shaken at 200 RPM for one hour at room temperature, plates emptied and residue liquid tapped out on paper towels. 200 μl washing solution (0.05% Tween-20 in PBS) was added, shaken at 200 RPM for 5 min at room temperature; plates emptied and residual liquid tapped out on paper towels. This process was repeated three times. 100 μl TMB substrate solution was added, and incubated at room temperature. The reaction was stopped with 1 N HCl, and the plate read at 450 nm to determine relative binding affinity (FIG. 17).
row,ELISA OD 450,Binder
1,0.517,B1
2,0.495,B2
3,0.15,B3
4,0.444,B4
5,0.56,B5
6,0.386,B6
7,0.638,B7
8,0.538,B8
